Data reported in patent publication US20200282017A1 (CLEVELAND CLINIC FOUNDATION, published 2020).

B1: High mobility group box 1 (HMGB1), recombinant human HMGB1 produced in mammalian cells (other)
chain: MGKGDPKKPRGKMSSYAFFVQTCREEHKKKHPDASVNFSEFSKKCSERWKTMSAKEKGKFEDMAKADKARYEREMKTYIPPKGETKKKFKDPNAPKRPPSAFFLFCSEYRPKIKGEHPGLSIGDVAKKLGEMWNNTAADDKQPYEKKAAKLKEKYEKDIAAYRAKGKPDAAKKGVVKAEKSKKKKEEEEDEEDEEDEEEEEDEEDEDEEEDDDDE
notes: also called recombinant HMGB1; full-length HMGB1 protein
B2: Box A protein, truncation mutant composed of aa 2-97 of HMGB1 (other)
chain: GKGDPKKPRGKMSSYAFFVQTCREEHKKKHPDASVNFSEFSKKCSERWKTMSAKEKGKFEDMAKADKARYEREMKTYIPPKGETKKKFKDPNAPKR
notes: The position of the His tag is unknown; also called Box A from HMGB1; not shown: His tag implied by detection with anti-HIS antibody

Columns and labels:
[1] = molecular target: T1, E. coli (K12) FimH, wild type, on the surface of E. coli (Escherichia coli (K12), UniProt P08191 22-300); experiment: immunofluorescence microscopy of E. coli +/- FimH exposed to recombinant HMGB1, stained with anti-HMGB1 antibody
T1 construct: whole, on cells; also called FimH-WT; fimbrial protein H
T1 sequence (P08191 22-300): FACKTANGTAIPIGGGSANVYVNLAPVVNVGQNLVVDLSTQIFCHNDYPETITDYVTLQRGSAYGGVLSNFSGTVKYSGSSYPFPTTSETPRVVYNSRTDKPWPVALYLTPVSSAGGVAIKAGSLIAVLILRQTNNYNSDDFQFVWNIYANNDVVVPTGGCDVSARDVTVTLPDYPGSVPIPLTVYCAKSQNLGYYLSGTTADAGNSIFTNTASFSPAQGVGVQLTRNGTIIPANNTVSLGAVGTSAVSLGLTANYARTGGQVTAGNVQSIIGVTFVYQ

[2] = molecular target: T1, E. coli (K12) FimH, wild type, on the …; experiment: flow cytometry of FimH+ or FimH- E. coli (K12) treated with Box A protein and stained with anti-HIS antibody

Binder	binding result [1]	binding result [2]
B1	binds	
B2		binds
